The record followed here is article PMC9765618, “PML Body Component Sp100A Is a Cytosolic Responder to IFN and Activator of Antiviral ISGs” (mBio, 2022).

The target of this test is T1, bacterially purified His-tagged hemagglutinin (HA)-PKM2 (human, UniProt P14618 1-531).
T1 construct: pyruvate kinase 2 (PKM2), human; also called His-HA-PKM2
As to the kind of experiment: pull-down. To be noted: both partners purified.

T1 sequence (P14618 whole entry): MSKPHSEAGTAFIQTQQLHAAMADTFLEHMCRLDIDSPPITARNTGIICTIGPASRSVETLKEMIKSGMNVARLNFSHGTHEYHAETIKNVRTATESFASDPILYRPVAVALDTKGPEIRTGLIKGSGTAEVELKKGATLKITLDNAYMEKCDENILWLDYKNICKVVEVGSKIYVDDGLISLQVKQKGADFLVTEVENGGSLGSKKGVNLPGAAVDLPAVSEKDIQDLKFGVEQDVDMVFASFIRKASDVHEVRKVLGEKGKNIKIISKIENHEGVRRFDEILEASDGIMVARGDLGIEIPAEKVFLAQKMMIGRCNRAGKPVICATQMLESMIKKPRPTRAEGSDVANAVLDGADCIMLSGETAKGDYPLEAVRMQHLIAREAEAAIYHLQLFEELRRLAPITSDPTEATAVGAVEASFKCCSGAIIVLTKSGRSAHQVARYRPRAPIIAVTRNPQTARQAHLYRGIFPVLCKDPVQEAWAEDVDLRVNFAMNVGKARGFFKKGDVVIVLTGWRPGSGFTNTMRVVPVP

B1: bacterially purified GST-tagged Sp100A (natural protein)
chain: not shown
notes: Sp100A, isoform A of human Sp100; also called GST-Sp100A
B1: the binding result is “binds”.
